In patent US20090111104A1, “Method for Monitoring Hydrolytic Activity” (Fluorotechnics Pty Limited, priority 2005, published 2009):

Key:
Assay type in all cases: biochemical, bovine
BSA [1] = target: T1, BSA (Bos taurus, UniProt P02769); assay: Real-time monitoring of trypsin digestion of BSA using epicocconone (FluoStar assay); details: epicocconone reporter dye, bicine pH 8.4, 37° C., trypsin 1:40, reduced and alkylated BSA
T1 construct: purchased Sigma-Aldrich A3059
Method: A.3.1 Preparation of BSA for digestion • 1 Trypsin digestion was carried out in bicine buffer (ph 8.4). • 2 BSA was prepared in 10 mg/mL in 50 mM bicine buffer. • 3 One hundred microliter of the BSA sample was used for trypsin digestion.
A.3.2 Reduction and Alkylation • 1 The 100 μL of BSA sample was reduced by adding 5 μL of DTT stock for 10 min at 80° C. • 2 The sample was alkylated by adding 4 μL of the iodoacetamide stock at room temperature for 45 min-1 hr. • 3 The remaining iodoacetamide of the sample was neutralized by adding 20 μL of the DTT at room temp for 45 min-1 hr.
A.3.3 Real-Time Monitoring of Trypsin Digestion Using Epicocconone (FluoStar Assay) • 1 The reduced and denatured BSA sample from 3.2 above was diluted 10-fold in 50 mM bicine buffer (25 μL+225 μL bicine buffer). BSA molar concentration was calculated to be approx. 4 μM. • 2 One hundred microliter of the sample (step 1) was prepared in duplicates and added to a microtiter plate. […] At this point in time, it required approximately 10 min to get appropriate FluoStar setting conditions. • 4 Trypsin (Sigma-Aldrich T6567), reconstituted in 1 mM HCl, was added at a ratio of 1:40. • 5 Fluorescence development was monitored in real time every 2 minutes up to 6 hours using FluoStar (Ex/Em=540/630±12). […]

BSA [2] = target: T1, BSA; assay: Tryptic digestion of BSA followed with SYPROorange; details: SYPROorange reporter dye
Method: • As per Example 2 above. • SYPROorange (24 mM in DMSO, Molecular Probes) diluted to 100-fold in 50 mM bicine
As per Example 2 except the Fluorostar plate reader was set to 480 nm excitation and 600 (±10 nm) bandpass emission filter.

BSA [3] = target: T1, BSA; assay: Real-time monitoring of BSA proteolysis with different fluorophores in the presence of detergent (Example 7); details: method of example 7, real-time with fluorophore and SDS
Method: • 1 Trypsin and papain digestion was carried out in bicine buffer at pH 8.4 and pH 7.0, respectively. • 2 BSA was prepared in 10 mg/mL in 100 mM bicine buffer. • 3 One hundred microliter of the BSA sample was used for trypsin and papain digestion.
7.2.2 Real-Time Monitoring of Trypsin Digestion with Fluorophores in the Presence of a Detergent • 1. The reduced and denatured BSA sample was diluted 10-fold in 100 mM bicine buffer (25 μL+225 μL bicine buffer). • 2. One hundred microliter of the sample (step 1) was added to a well in a 96-well microtiter plate. Controls included a bicine-based digestion buffer, a trypsin sample or papain only and an undigested BSA sample (no trypsin or no papain). The assay consists of a 4-well sample set for one fluorophore, e.g. SYPROorange. Three sets of samples were prepared in the same manners for the remaining fluorophores, e.g. Nile red, epicocconone and […]. • 3. SYPROorange stock solution was diluted 5000-fold in the bicine buffer (pH 8.4). Nile red and epicocconone and stock solutions were diluted 100-fold in the 100 mM bicine (pH 8.5). ANS was diluted 100-fold in the bicine buffer (pH 7.0). • 4. […] Fluorescence development was monitored in real time every 2 minutes up to 400 minutes using FluoStar (Ex/Em=485/600±10 for SYPROorange; 540±10/630±10 for epicocconone and Nile red; 355/460 for ANS). […]

T1 sequence (P02769 25-607): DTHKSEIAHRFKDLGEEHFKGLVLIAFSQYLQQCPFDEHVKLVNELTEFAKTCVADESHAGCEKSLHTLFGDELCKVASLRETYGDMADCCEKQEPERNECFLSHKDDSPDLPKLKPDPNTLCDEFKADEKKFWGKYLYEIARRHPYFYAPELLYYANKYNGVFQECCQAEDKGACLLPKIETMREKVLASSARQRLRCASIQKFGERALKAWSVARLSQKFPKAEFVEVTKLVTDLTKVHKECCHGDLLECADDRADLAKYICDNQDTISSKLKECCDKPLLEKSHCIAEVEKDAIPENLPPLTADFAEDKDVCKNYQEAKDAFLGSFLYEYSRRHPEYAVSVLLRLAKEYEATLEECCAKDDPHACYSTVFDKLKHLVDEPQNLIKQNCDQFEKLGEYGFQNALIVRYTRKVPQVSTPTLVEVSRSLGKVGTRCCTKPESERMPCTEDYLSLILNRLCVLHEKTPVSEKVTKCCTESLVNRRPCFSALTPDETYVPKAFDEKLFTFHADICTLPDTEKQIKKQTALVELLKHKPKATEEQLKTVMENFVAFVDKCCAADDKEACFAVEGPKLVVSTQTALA

- apparent first order rate constant (BSA [1]): 0.109 min⁻¹
- apparent first order rate constant for tryptic digestion (BSA [2]): 0.1466 min⁻¹
- pseudo-first order rate constant for digestion of BSA (BSA [3]): 0.1 to 0.2 min⁻¹
B1: trypsin: Proteomics grade trypsin protease, Sigma-Aldrich T6567 (protein, UniProt P00761 9-231, looked up)
Trypsin: IVGGYTCAANSIPYQVSLNSGSHFCGGSLINSQWVVSAAHCYKSRIQVRLGEHNIDVLEGNEQFINAAKIITHPNFNGNTLDNDIMLIKLSSPATLNSRVATVSLPRSCAAAGTECLISGWGNTKSSGSSYPSLLQCLKAPVLSDSSCKSSYPGQITGNMICVGFLEGGKDSCQGDSGGPVVCNGQLQGIVSWGYGCAQKNKPGVYTKVCNYVNWIQQTIAAN
